Source: patent US20240141059A1 (Bristol-Myers Squibb, published 2024)

T1: human CD73 on cells (human, UniProt P21589 27-549)
T1 sequence (looked up): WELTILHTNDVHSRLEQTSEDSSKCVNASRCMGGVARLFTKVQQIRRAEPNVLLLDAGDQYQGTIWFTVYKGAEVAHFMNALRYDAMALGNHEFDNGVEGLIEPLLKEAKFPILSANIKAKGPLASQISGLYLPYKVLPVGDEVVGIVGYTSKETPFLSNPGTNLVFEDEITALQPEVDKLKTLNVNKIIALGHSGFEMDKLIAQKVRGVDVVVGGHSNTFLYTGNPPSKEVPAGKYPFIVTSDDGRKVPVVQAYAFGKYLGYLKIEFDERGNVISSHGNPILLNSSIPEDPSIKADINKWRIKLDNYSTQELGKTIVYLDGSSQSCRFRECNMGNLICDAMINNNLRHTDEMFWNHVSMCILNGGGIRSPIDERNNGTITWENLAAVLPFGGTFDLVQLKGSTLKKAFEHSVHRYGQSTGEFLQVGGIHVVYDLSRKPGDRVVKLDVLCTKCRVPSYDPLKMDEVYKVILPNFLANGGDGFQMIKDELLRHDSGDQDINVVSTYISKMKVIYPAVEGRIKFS


molecular target: T1, human CD73 on cells; experiment: cell-based or functional assay

Binder | internalization T1/2, Calu6 | internalization T1/2, NCI-H292 | internalization Ymax, Calu6 | internalization Ymax, NCI-H292
CD73.4-IgG2.5G1-KH (antibody, also called mAb-CD73.4-IgG2.5G1-KH; CD73.4-Vh-hHC-IgG2.5G1-KH) heavy: QVQLVESGGGVVQPGRSLRLSCAASGFTFSNYGMHWVRQAPGKGLEWVAVILYDGSNKYYPDSVKGRFTISRDNSKNTLYLQMNSLRAEDTAVYYCARGGSSWYPDSFDIWGQGTMVTVSSASTKGPSVFPLAPSSRSTSESTAALGCLVKDYFPEPVTVSWNSGALTSGVHTFPAVLQSSGLYSLSSVVTVPSSNFGTQTYTCNVDHKPSNTKVDKTVERKCCVECPPCPAPPVAGPSVFLFPPKPKDTLMISRTPEVTCVVVDVSHEDPEVKFNWYVDGVEVHNAKTKPREEQYNSTYRVVSVLTVLHQDWLNGKEYKCKVSNKALPAPIEKTISKAKGQPREPQVYTLPPSREEMTKNQVSLTCLVKGFYPSDIAVEWESNGQPENNYKTTPPVLDSDGSFFLYSKLTVDKSRWQQGNVFSCSVMHEALHNHYTQKSLSLSPGK light: not shown | 17 min | 15.4 min | 76% | 90.8%
CD73.4-IgG2.3G1-KH (antibody, also called mAb-CD73.4-IgG2.3G1-KH; CD73.4-Vh-hHC-IgG2.3G1-KH) heavy: QVQLVESGGGVVQPGRSLRLSCAASGFTFSNYGMHWVRQAPGKGLEWVAVILYDGSNKYYPDSVKGRFTISRDNSKNTLYLQMNSLRAEDTAVYYCARGGSSWYPDSFDIWGQGTMVTVSSASTKGPSVFPLAPCSRSTSESTAALGCLVKDYFPEPVTVSWNSGALTSGVHTFPAVLQSSGLYSLSSVVTVPSSNFGTQTYTCNVDHKPSNTKVDKTVERKSCVECPPCPAPPVAGPSVFLFPPKPKDTLMISRTPEVTCVVVDVSHEDPEVKFNWYVDGVEVHNAKTKPREEQYNSTYRVVSVLTVLHQDWLNGKEYKCKVSNKALPAPIEKTISKAKGQPREPQVYTLPPSREEMTKNQVSLTCLVKGFYPSDIAVEWESNGQPENNYKTTPPVLDSDGSFFLYSKLTVDKSRWQQGNVFSCSVMHEALHNHYTQKSLSLSPGK light: not shown | 23.8 min | 16.8 min | 81.6% | 91.6%
CD73.4-IgG2.5 (antibody, also called mAb-CD73.4-IgG2.5; CD73.4-Vh-hHC-IgG2.5) heavy: QVQLVESGGGVVQPGRSLRLSCAASGFTFSNYGMHWVRQAPGKGLEWVAVILYDGSNKYYPDSVKGRFTISRDNSKNTLYLQMNSLRAEDTAVYYCARGGSSWYPDSFDIWGQGTMVTVSSASTKGPSVFPLAPSSRSTSESTAALGCLVKDYFPEPVTVSWNSGALTSGVHTFPAVLQSSGLYSLSSVVTVPSSNFGTQTYTCNVDHKPSNTKVDKTVERKCCVECPPCPAPPVAGPSVFLFPPKPKDTLMISRTPEVTCVVVDVSHEDPEVQFNWYVDGVEVHNAKTKPREEQFNSTFRVVSVLTVVHQDWLNGKEYKCKVSNKGLPAPIEKTISKTKGQPREPQVYTLPPSREEMTKNQVSLTCLVKGFYPSDIAVEWESNGQPENNYKTTPPMLDSDGSFFLYSKLTVDKSRWQQGNVFSCSVMHEALHNHYTQKSLSLSPGK light: not shown | 20.9 min | 18.3 min | 79% | 89.6%
CD73.4-IgG2.5G1.1f-KH (antibody, also called mAb-CD73.4-IgG2.5G1.1f-KH; CD73.4-Vh-hHC-IgG2.5G1.1f-KH) heavy: QVQLVESGGGVVQPGRSLRLSCAASGFTFSNYGMHWVRQAPGKGLEWVAVILYDGSNKYYPDSVKGRFTISRDNSKNTLYLQMNSLRAEDTAVYYCARGGSSWYPDSFDIWGQGTMVTVSSASTKGPSVFPLAPSSRSTSESTAALGCLVKDYFPEPVTVSWNSGALTSGVHTFPAVLQSSGLYSLSSVVTVPSSNFGTQTYTCNVDHKPSNTKVDKTVERKCCVECPPCPAPPVAGPSVFLFPPKPKDTLMISRTPEVTCVVVDVSHEDPEVKFNWYVDGVEVHNAKTKPREEQYNSTYRVVSVLTVLHQDWLNGKEYKCKVSNKALPSSIEKTISKAKGQPREPQVYTLPPSREEMTKNQVSLTCLVKGFYPSDIAVEWESNGQPENNYKTTPPVLDSDGSFFLYSKLTVDKSRWQQGNVFSCSVMHEALHNHYTQKSLSLSPGK light: not shown | 21.2 min | 18 min | 79.6% | 90.9%
CD73.4-IgG2.3-plusGGG (antibody, also called mAb-CD73.4-IgG2.3-plusGGG; CD73.4-Vh-hHC-IgG2.3-plusGGG) heavy: QVQLVESGGGVVQPGRSLRLSCAASGFTFSNYGMHWVRQAPGKGLEWVAVILYDGSNKYYPDSVKGRFTISRDNSKNTLYLQMNSLRAEDTAVYYCARGGSSWYPDSFDIWGQGTMVTVSSASTKGPSVFPLAPCSRSTSESTAALGCLVKDYFPEPVTVSWNSGALTSGVHTFPAVLQSSGLYSLSSVVTVPSSNFGTQTYTCNVDHKPSNTKVDKTVERKSCVEGGGCPPCPAPPVAGPSVFLFPPKPKDTLMISRTPEVTCVVVDVSHEDPEVQFNWYVDGVEVHNAKTKPREEQFNSTFRVVSVLTVVHQDWLNGKEYKCKVSNKGLPAPIEKTISKTKGQPREPQVYTLPPSREEMTKNQVSLTCLVKGFYPSDIAVEWESNGQPENNYKTTPPMLDSDGSFFLYSKLTVDKSRWQQGNVFSCSVMHEALHNHYTQKSLSLSPGK light: not shown | 20.1 min | 16.3 min | 81.7% | 91.6%
CD73.4-IgG2.5-plusTHT (antibody, also called mAb-CD73.4-IgG2.5plusTHT/LC; CD73.4-Vh-hHC-IgG2.5plusTHT/LC) heavy: QVQLVESGGGVVQPGRSLRLSCAASGFTFSNYGMHWVRQAPGKGLEWVAVILYDGSNKYYPDSVKGRFTISRDNSKNTLYLQMNSLRAEDTAVYYCARGGSSWYPDSFDIWGQGTMVTVSSASTKGPSVFPLAPSSRSTSESTAALGCLVKDYFPEPVTVSWNSGALTSGVHTFPAVLQSSGLYSLSSVVTVPSSNFGTQTYTCNVDHKPSNTKVDKTVERKCCVETHTCPPCPAPPVAGPSVFLFPPKPKDTLMISRTPEVTCVVVDVSHEDPEVQFNWYVDGVEVHNAKTKPREEQFNSTFRVVSVLTVVHQDWLNGKEYKCKVSNKGLPAPIEKTISKTKGQPREPQVYTLPPSREEMTKNQVSLTCLVKGFYPSDIAVEWESNGQPENNYKTTPPMLDSDGSFFLYSKLTVDKSRWQQGNVFSCSVMHEALHNHYTQKSLSLSPGK light: not shown | 17.2 min | 15.4 min | 80.2% | 89.6%
